Here are results for 80 sequences from the supplement of paper PMC10724198.

± gives the standard deviation of the averaged measurements.
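Note: PSI is a weighted mean of sequencing reads over stability bins, variants kept only with over 10 reads, mCherry proximal and sfGFP distal, peptide attached via GGGS linker.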

The subject of this data set is Saccharomyces cerevisiae. The data set can be described thus: protein stability index of tFT-peptide fusion (C-terminal peptide) (PSI (0-1 scale)); higher = more stable (slower turnover). The conditions noted are these: genetic background: wild type; temperature: 30 C.
TPAPFSSHLVRR showed a protein stability index of 0.723 ± 0.083.

TPASSLFRCASR gave a protein stability index of 0.656 ± 0.028.

In turn, TPATRCLASDSR returned a protein stability index of 0.766 ± 0.11.

The sequence TPDVLGPLFPGD had a protein stability index of 0.642 ± 0.099.

Regarding TPFLLHPPSPDL, the protein stability index is 0.607 ± 0.051.

For TPGYWVPPPTIP, the protein stability index is 0.66 ± 0.027.

TPLLAALRPTTS yielded a protein stability index of 0.764 ± 0.07.

Sequence TPLPPEHLPRSR yielded a protein stability index of 0.661 ± 0.031.

The sequence TPMDVEVPIAPI registered a protein stability index of 0.753 ± 0.063.

Consider TPNKKTGNQYPG, for which the protein stability index is 0.685 ± 0.038.

TPNLHPPSAATP registered a protein stability index of 0.668 ± 0.038.

Turning to TPNYPLHPTKKI, the protein stability index was found to be 0.681 ± 0.0084.

In turn, TPPAEGTSQTKL displayed a protein stability index of 0.659 ± 0.054.

TPPFPPSPFLTL returned a protein stability index of 0.783 ± 0.039.

Consider TPPPFRLPAPSL, for which the protein stability index stood at 0.71 ± 0.037.

TPPPLSAPSYAG had a protein stability index of 0.697 ± 0.014.

Take TPPPPPPFPLPP: the protein stability index worked out at 0.654 ± 0.031.

For the sequence TPPPSSLVIFFI, the protein stability index turned out to be 0.675 ± 0.11.

For TPPRLLLPAATT, the protein stability index was found to be 0.7244 ± 0.0061.

Consider TPPSPPLPNQLP, for which the protein stability index worked out at 0.696 ± 0.27.

For TPRLVFFLPLLP, the protein stability index was 0.658 ± 0.029.

As to TPRSPFPPLPPP, the protein stability index was 0.698 ± 0.049.

TPSLLPSPPFPL showed a protein stability index of 0.733 ± 0.02.

Take TPSPAPPTPFTP: the protein stability index was 0.659 ± 0.023.

In turn, TPSSDFKPTGVR came in with a protein stability index of 0.654 ± 0.054.

TPTFALIHPTET had a protein stability index of 0.745 ± 0.031.

In turn, TPTPLTRRPTQV returned a protein stability index of 0.673 ± 0.041.

The sequence TPVPPLLSRCYP returned a protein stability index of 0.691 ± 0.044.

The sequence TPVSTNHFYTLE yielded a protein stability index of 0.613 ± 0.0094.

For TPWGPGAAAAPP, the protein stability index is 0.684 ± 0.043.

As for TQKKSTQLIKKK, the protein stability index is 0.698 ± 0.067.

For TQRTSRDPLRAP, the protein stability index was 0.652 ± 0.016.

TQSYLVSLRCGF had a protein stability index of 0.796 ± 0.13.

Sequence TRDLWWNVRVRA registered a protein stability index of 0.543 ± 0.015.

The sequence TRFLWYFVPTTK showed a protein stability index of 0.704 ± 0.071.

Regarding TRGCIRWRVVRR, the protein stability index is 0.7 ± 0.035.

For TRLSTPGYLILS, the protein stability index came out at 0.724 ± 0.016.

Consider TRRHKPNSGTRP, for which the protein stability index worked out at 0.69465 ± 7.1e-06.

On to TRSNEERKGKKS, for which the protein stability index amounted to 0.731 ± 0.14.

For TRTFRPPPALPH, the protein stability index came out at 0.691 ± 0.068.

On to TRTGSTPRGSTR, for which the protein stability index was 0.684 ± 0.069.

Sequence TRYIRKSKTKGA yielded a protein stability index of 0.643 ± 0.014.

The sequence TSAASPVRYGGS yielded a protein stability index of 0.65 ± 0.014.

The sequence TSFNQCRVFCRT showed a protein stability index of 0.614 ± 0.049.

For TSLSVGVFSSPV, the protein stability index amounted to 0.647 ± 0.02.

Take TSPLPRPPPPSY: the protein stability index came out at 0.61 ± 0.043.

Consider TSPPPLPLPSLR, for which the protein stability index came out at 0.686 ± 0.013.

TSPTIPSTPFSN yielded a protein stability index of 0.704 ± 0.087.

Sequence TSSHLLFISSMI showed a protein stability index of 0.638 ± 0.034.

Regarding TSSPHGQSVTEP, the protein stability index was determined as 0.67 ± 0.05.

TSSRHNEVIKGC registered a protein stability index of 0.706 ± 0.033.

In turn, TSTQVMYVSCCL showed a protein stability index of 0.63 ± 0.014.

Turning to TSVFPLFSPLRS, the protein stability index stood at 0.721 ± 0.029.

TSWGSRWLPYAS returned a protein stability index of 0.665 ± 0.025.

Sequence TTFHLCLFQKSS registered a protein stability index of 0.584 ± 0.0071.

In turn, TTGGRGSRGGGR had a protein stability index of 0.723 ± 0.039.

Take TTKKMVRIVSTV: the protein stability index turned out to be 0.571 ± 0.052.

In turn, TTPPPPPRHPAP registered a protein stability index of 0.696 ± 0.019.

The sequence TTPTPPPALPLP displayed a protein stability index of 0.69 ± 0.019.

In turn, TTQGICWMAKGV yielded a protein stability index of 0.695 ± 0.0088.

Consider TTTQIIRISKSR, for which the protein stability index was found to be 0.673 ± 0.044.

On to TTYKRRTSKTLS, for which the protein stability index was found to be 0.679 ± 0.024.

For the sequence TVCGWSHLFVYN, the protein stability index turned out to be 0.669 ± 0.026.

Regarding TVFGLLHALLYS, the protein stability index was determined as 0.724 ± 0.037.

Turning to TVGLSLGRGSGD, the protein stability index was determined as 0.67 ± 0.024.

The sequence TVGSLNSEIAGK came in with a protein stability index of 0.691 ± 0.057.

As for TVIDVIKLMLHL, the protein stability index came out at 0.583 ± 0.044.

In the case of TVKYVVSTRAFI, the protein stability index amounted to 0.627 ± 0.044.

With TVRFYHGSFRAP, the protein stability index is 0.727 ± 0.062.

In turn, TWGCAGAIRSVG had a protein stability index of 0.689 ± 0.094.

The sequence TWPSGRASGHVG registered a protein stability index of 0.702 ± 0.0079.

TYFMSAFWPPGV yielded a protein stability index of 0.631 ± 0.03.

With TYGRPICFSFKR, the protein stability index amounted to 0.701 ± 0.049.

Turning to TYKNTVTRTKAY, the protein stability index came out at 0.658 ± 0.02.

The sequence TYRGKIVAPGVL registered a protein stability index of 0.656 ± 0.053.

On to TYSTDRPGLHTW, for which the protein stability index is 0.698 ± 0.074.

In the case of TYTPQVSSVFPI, the protein stability index was 0.698 ± 0.018.

As for VACSVVVPGLGG, the protein stability index stood at 0.69 ± 0.017.

The sequence VAGATGRWIGHG registered a protein stability index of 0.6771 ± 0.0045.

In turn, VAGGLRGLGLRA registered a protein stability index of 0.67 ± 0.053.
